Experimental data from article PMC6324732 (Cancer immunology research, 2018).
Like-named read-outs stand apart in the source and are kept apart here.

Legend:
[1] = target: HLA-A*02:01 heavy chain / β2-microglobulin (human); experiment: differential scanning fluorimetry
HLA-A2 [2] = settings: pep/HLA-A2 complexes; cited from earlier work
[3] = test system: HLA-A2-restricted T-cell response; settings: HLA-A2-restricted epitopes; cited from earlier work
HLA-A2 [4] = settings: each complex refolded with HLA-A2 individually, DSF; cited from earlier work
[5] = target: HLA-A*02:01 heavy chain / β2-microglobulin (human); experiment: differential scanning fluorimetry; remark: listed apart in the source

Row | Molecule | Tm of the peptide/HLA-A2 complex [5] [°C] | further results
1 | TAX peptide |  | Tm of the peptide/HLA-A2 complex [1]: 61.9 °C
2 | FLTSVINRV |  | half-life of the complex (reported) (HLA-A2 [2]): 22.3 h; immunogenicity (reported) [3]: immunogenic
3 | YMDGTMSQV [Tyrosinase] |  | Tm value determined by another lab (HLA-A2 [4]): 67.3 °C
4 | ACDPHSGHFV [CDK4 neoantigen peptide …] | 59.9 | 
5 | FMPDFDLHL [AHNAK neoantigen peptide …] | 60.1 | 
6 | LLHTELERFL [DCAKD neoantigen peptide …] | 42.9 | 
7 | VLLGVKLFGV [COL18A1 neoantigen peptide …] | 60.9 | 
8 | TLLSQVNKV [CIT neoantigen peptide …] | 53.2 | 
9 | GLFGDIYLAI [CSNK1A1 neoantigen peptide …] | 52.6 | 
10 | FIASNGVKLV [ACTININ neoantigen peptide …] | 56.9 | 
11 | VLAKKLKFV [ACPP neoantigen peptide …] | 56.8 | 
12 | ILDKVLVHL [CLPP neoantigen peptide …] | 57.1 | 
13 | FLSDHLYLV [CDC37L1 neoantigen peptide …] | 61.8 | 

Now from value to molecule, other results behind:

Row | Tm of the peptide/HLA-A2 complex [5] [°C] | Molecule | further results
14 | 48.2 | VLENFTIFLV | 
15 | 61.7 | ALYGFVPVL [GANAB neoantigen peptide …] | 
16 | 61.4 | ILTGLNYEV [NSDHL neoantigen peptide …] | 
17 | 56.9 | ILNAMIAKI [HAUS3 neoantigen peptide …] | 
18 | 58.5 | GIVEGLITTV [GAPDH neoantigen peptide …] | 
19 | 59.4 | ALIHHNTYL [ERBB2 neoantigen peptide …] | 
20 | 55.8 | SVLENFTIFL | 
21 | 63.2 | FLDEFMEGV [ME-1 neoantigen peptide …] | 
22 | 63.7 | TLWCSPIKV [SRPX neoantigen peptide …] | 
23 | 55.3 | LLLDDLLVSI [PRDX5 neoantigen peptide …] | 
24 | 60.7 | FLLDEAIGL [SPOP neoantigen peptide …] | 
25 | 59.8 | SLFEGIDIYT [HSP70 neoantigen peptide …] | 
26 | 59.7 | VLHDDLLEA [KIAA0223 neoantigen peptide …] | 
27 | 56.4 | HIAKSLFEV [FLNA neoantigen peptide …] | 
28 | 59.2 | SLADEAEVYL [GAS7 neoantigen peptide …] | 
29 | 61.6 | VVMSWAPPV [FNDC3B neoantigen peptide …] | 
